Source: paper PMC11169542, “A probe for NIR-II imaging and multimodal analysis of early Alzheimer’s disease by targeting CTGF” (Nature Communications, 2024)
Ends that are not written are not given here.

Columns and labels:
[1] = Monitoring DGC in blood serum by ex vivo NIR-II imaging; parameters: species or system C57BL/6J mice; conditions: NIR-II imaging and ICP-MS quantification of DGC in mouse serum after tail vein injection
Experimental: The C57BL/6J mice (male and female) were injected with DGC (20 mg/kg) through the tail vein (n = 3). After injection, the blood samples were collected at 0.083, 0.25, 0.5, 1, 2, 4, 8, 10, 12, 24, and 48 h through the posterior orbital vein of the mice. The serum was obtained by centrifugation (1200×g for 5 min) to remove blood cells. The serum samples were observed through the In vivo Master (Grand-imaging Technology) equipped with an InGaAs camera C-RED2 (Firstlight) (λ ex = 808 nm, 1000 nm longpass (LP) filter (Edmund Optics)) camera to obtain the NIR-II image (exposure time: 50 ms). ImageJ software was used to process and analyze the images obtained in the experiment, and the DGC content in the sample was evaluated according to the fluorescence intensity of the sample.

[2] = biological target: T1, CTGF (Homo sapiens, UniProt P29279); assay: DAB chromogenic imaging of DGC-labelled human brain sections; parameters: The brain tissue samples of autopsy-confirmed AD patients were obtained from the Chinese Brain Bank Center; from tissue; host or cells: postmortem human brain sections (hippocampus, cortex) of AD patients and healthy controls; conditions: 200 μM DGC 4 °C overnight + DAB
T1 sequence (P29279 27-349): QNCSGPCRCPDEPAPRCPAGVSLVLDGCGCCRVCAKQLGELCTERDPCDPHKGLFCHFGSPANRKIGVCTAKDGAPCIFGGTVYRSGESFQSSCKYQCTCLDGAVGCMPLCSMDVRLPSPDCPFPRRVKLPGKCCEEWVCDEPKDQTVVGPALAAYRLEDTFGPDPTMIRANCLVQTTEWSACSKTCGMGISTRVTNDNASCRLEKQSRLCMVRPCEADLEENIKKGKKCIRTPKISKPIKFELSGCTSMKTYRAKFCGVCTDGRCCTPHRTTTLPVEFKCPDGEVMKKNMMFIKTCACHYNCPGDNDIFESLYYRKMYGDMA
Experimental: The brain tissue samples of autopsy-confirmed AD patients were obtained from the Chinese Brain Bank Center (CBBC) and Human Brain Bank, Central South University Xiangya School of Medicine. First, the brain sections were air-dried for 15 min at room temperature, followed by immersion in water. 5% H2O2 was applied for 15 min at room temperature. The sections were washed three times with PBS for 5 min each time. Then, tissue repair was performed using trypsin at a temperature of 37 °C for 5 min and washed three times with PBS. We chose 10% sheep serum to block for a duration of 20 min at 37°. Primary antibodies (CTGF antibody and Aβ antibody) were added to the sections overnight at 4 °C. FITC-labeled Goat Anti-Rabbit IgG (H + L) (1: dilution 1:200, Bioss, Cat#bs-0370R-FITC) was applied and incubated at 37 °C for 20 min in darkness. Subsequent washing steps involved rinsing the sections three times with PBS, each time lasting for 5 min while avoiding exposure to light. DAPI staining was performed, taking care to store the samples away from light during the 5-min procedure. Then observed by the CLSM system. Then, we chose the optimal incubation concentration of DGC (200 μM) was used to determine the conditions using DAB Horseradish Peroxidase Color Development Kit. After the brain sections were co-stained by DGC (200 μM) at 4 °C overnight, a DAB chromogenic agent was added to the brain tissue sections to explore whether DGC can catalyze DAB solutions to produce insoluble brown precipitate to attach the brain tissue sections with an optical microscope. Finally, the brain tissue sections were digested with aqua regia to measure the Au content by the ICP-MS system.

[3] = test system: SH-SY5Y cells; assay: Cytotoxicity of DGC (CCK-8); assay type: cell-based; parameters: key to Cell viability: viability relative to control cells (control = 1); conditions: for Cell viability: 24 h, CCK-8, normalized to control
Experimental: U87MG, SH-SY5Y, and CTX TNA2 cells were seeded into 96-well plates at a density of 5 × 10^3 cells per well and were incubated at 37 °C for 24 h. […] Next, 10 µL of a colorimetric Cell Counting Kit (CCK-8) reagent diluted with 100 µL medium was added to each well, and incubated for 30 min, The absorbance at 450 nm was measured using a microplate reader (Molecular Devices, San Jose, CA, USA). The relative viability was normalized to control cells. The experiment was performed in triplicates.

[4] = biological target: T1, CTGF; assay: Affinity between DGC/DAG and CTGF protein by SPR (BIAcore); assay type: binding; parameters: purchased Abcam ab283457; conditions: ratio of SPR KD values
Experimental: Real-time binding and kinetic analyses by surface plasmon resonance (SPR) were performed on a BIAcore 8 K^+ instrument (Pharmacia Biosensor AB). The recombinant Human CTGF protein (Abcam, Cat#ab283457) was immobilized on a CM5 chip by using an amine coupling kit, and the remaining coupling sites were blocked with ethanolamine. The eluent contained PBS and 0.005% Tween 20. Binding was evaluated over a range of DAG (0.5–16 μM) or DGC (0.01– 0.16 μM) concentrations at 25 °C. Kinetic parameters were further determined with Biacore Insight Evaluation 3.0 software.

DGC: CTGF-targeting peptide-coated gold nanocluster: one Au26 gold nanocluster coated by eight DAG cyclic peptides, NIR-II and red fluorescence (CDAGRKQKC; also: cyclic peptide, ring not given here, eight peptides on one Au26 nanocluster via Cys Au-S bonds)
stability in blood circulation [1]: high stability during internal circulation
DAB chromogenic intensity ([2]; AD 1, Cortex section): 0.04756
DAB chromogenic intensity ([2]; AD 1, Hippocampus section): 0.01899
DAB chromogenic intensity ([2]; AD 2, Cortex section): 0.04585
DAB chromogenic intensity ([2]; AD 2, Hippocampus section): 0.0257
DAB chromogenic intensity ([2]; HC 1, Cortex section): 0.0065
DAB chromogenic intensity ([2]; HC 1, Hippocampus section): 0.00154
DAB chromogenic intensity ([2]; HC 2, Cortex section): 0.008159
DAB chromogenic intensity ([2]; HC 2, Hippocampus section): 0.005
Cell viability ([3]; 5 μM (Au content), replicate 1): 1.078
Cell viability ([3]; 5 μM (Au content), replicate 2): 1.039
Cell viability ([3]; 5 μM (Au content), replicate 3): 1.074
Cell viability ([3]; 10 μM (Au content), replicate 1): 0.9372
Cell viability ([3]; 10 μM (Au content), replicate 2): 1.045
Cell viability ([3]; 10 μM (Au content), replicate 3): 1.038
Cell viability ([3]; 20 μM (Au content), replicate 1): 1.029
Cell viability ([3]; 20 μM (Au content), replicate 2): 1.021
Cell viability ([3]; 20 μM (Au content), replicate 3): 1.039
Cell viability ([3]; 50 μM (Au content), replicate 1): 1.012
Cell viability ([3]; 50 μM (Au content), replicate 2): 1.009
Cell viability ([3]; 50 μM (Au content), replicate 3): 1.025
Cell viability ([3]; 100 μM (Au content), replicate 1): 0.9429
Cell viability ([3]; 100 μM (Au content), replicate 2): 0.9751
Cell viability ([3]; 100 μM (Au content), replicate 3): 1.036
Cell viability ([3]; 200 μM (Au content), replicate 1): 0.977
Cell viability ([3]; 200 μM (Au content), replicate 2): 1.039
Cell viability ([3]; 200 μM (Au content), replicate 3): 0.9912
Cell viability ([3]; 500 μM (Au content), replicate 1): 0.9817
Cell viability ([3]; 500 μM (Au content), replicate 2): 0.9959
Cell viability ([3]; 500 μM (Au content), replicate 3): 1.057
cytotoxicity ([3]; DGC incubation 24 h, CCK-8): did not cause any obvious cytotoxicity
binding affinity of DGC to CTGF relative to free DAG peptide [4]: more than 1000 times
